Positions count from the first letter of the chain named. Names and notes keep the numbering of the source.
B1: human GrpEL1 wild type, without its mitochondrial targeting sequence (natural protein, UniProt Q9HAV7 28-217, looked up)
chain: CTATKQKNSGQNLEEDMGQSEQKADPPATEKTLLEEKVKLEEQLKETVEKYKRALADTENLRQRSQKLVEEAKLYGIQAFCKDLLEVADVLEKATQCVPKEEIKDDNPHLKNLYEGLVMTEVQIQKVFTKHGLLKLNPVGAKFDPYEHEALFHTPVEGKEPGTVALVSKVGYKLHGRTLRPALVGVVKEA
notes: GrpEL1, human mitochondrial nucleotide exchange factor; printed mass 25.5 kDa a protomer; Homodimer; no tag removal is described; also called GrpEL1WT; HsGrpEL1; source: E. coli LOBSTR, purified (Ni Sepharose, Strep-Tactin, Superdex 200)
B2: human GrpEL1 Y173A, without its mitochondrial targeting sequence (natural protein, UniProt Q9HAV7 28-217, looked up)
chain: B1 chain with Y146A
notes: GrpEL1, human; Two protomers (GrpEL1-A and GrpEL1-B) were modelled in the Y173A structures; also called HsGrpEL1_(Y173A); source: E. coli LOBSTR, purified as GrpEL1WT (Ni Sepharose, Strep-Tactin, Superdex 200)

Assays:
[1] = target: the molecule itself; assay: cryo-EM structure; high molecular weight SEC peak concentrated and vitrified on UltraAuFoil grids; Titan Krios G4, 300 keV; nucleotide-free complexes
[2] = target: T1, human mortalin R126W (mitochondrial Hsp70, HSPA9), without its mitochondrial targeting sequence (human, UniProt P38646 47-679, R126W); assay: SEC-MALS; the mortalin_(R126W)-GrpEL1 complex; 152.5 kDa species; settings: both partners purified
T1 construct: mortalin (mitochondrial Hsp70, HSPA9), human; printed mass 70.2 kDa; R126W is associated with EVEN-PLUS syndrome; residues 46-639 were modelled in the cryo-EM map; No tag removal is described; also called Hsmortalin_(R126W); mtHsp70; source: E. coli LOBSTR, co-expressed with HsHep1, purified (HisTrap, HiTrap Q, Superdex 200)

[3] = target: T1, human mortalin R126W (mitochondrial …); assay: SEC; purified mortalin (20 uM), GrpEL1 (40 uM) and Pam16/Pam18 chimera (12 uM) incubated 1 h at room temperature, then Superdex 200 Increase 10/300 GL in 20 mM Tris pH 8, 150 mM KCl, 0.5 mM TCEP; fractions seen by SDS-PAGE; settings: both partners purified

T1 sequence (P38646 47-679 R126W): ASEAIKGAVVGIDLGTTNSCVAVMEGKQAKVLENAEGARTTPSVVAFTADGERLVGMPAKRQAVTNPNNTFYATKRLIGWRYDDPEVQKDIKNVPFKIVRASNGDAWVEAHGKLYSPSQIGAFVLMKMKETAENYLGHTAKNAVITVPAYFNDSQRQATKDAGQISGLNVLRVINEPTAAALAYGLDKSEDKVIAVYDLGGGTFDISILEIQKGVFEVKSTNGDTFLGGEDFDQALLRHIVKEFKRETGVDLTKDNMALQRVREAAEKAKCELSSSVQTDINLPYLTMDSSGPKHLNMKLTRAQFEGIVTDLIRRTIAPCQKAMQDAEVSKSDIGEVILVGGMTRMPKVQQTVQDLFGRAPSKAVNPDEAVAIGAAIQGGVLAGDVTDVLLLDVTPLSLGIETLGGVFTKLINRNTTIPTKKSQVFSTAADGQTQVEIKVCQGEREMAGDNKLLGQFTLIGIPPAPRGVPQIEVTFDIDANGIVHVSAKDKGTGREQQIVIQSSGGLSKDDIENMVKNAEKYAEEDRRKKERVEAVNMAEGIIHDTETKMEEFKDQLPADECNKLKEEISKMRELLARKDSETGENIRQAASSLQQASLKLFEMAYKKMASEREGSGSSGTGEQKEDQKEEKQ

Binder | stoichiometry N [1] | stoichiometry N [2] [GrpEL1 per mortalin] | binding result [3] | binding result [1]
B1 | 2 | 2 |  | 
B2 |  |  | binds | binds
